Source: US12674174B2, “Protoporphyrinogen oxidase (PPO) resistance plant” (PLANTARC BIO LTD., priority 2022, dated 2026)

Tests used:
[1] = system: transgenic Arabidopsis plants; format: in vivo; conditions: for level of resistance against Aurora (in words): Aurora 0.01% to 0.5%, compared to control plants; for level of resistance to Strike, more tolerant to treatment as compared to control plants / level of resistance against Strike (in words): Strike 0.01% to 1%; for level of resistance to Strike, more tolerant to treatment as compared to control plants: 5 orders of magnitude
Excerpt: (SEQ ID NO: 8 was cloned from SEQ ID NO: 1, SEQ ID NO: 9 was cloned from SEQ ID NO: 2, SEQ ID NO: 10 was cloned from SEQ ID NO: 3, SEQ ID NO: 11 was cloned from SEQ ID NO: 4, SEQ ID NO: 12 was cloned from SEQ ID NO: 5, SEQ ID NO: 13 was cloned from SEQ ID NO: 6 SEQ ID NO: 14 was cloned from SEQ ID NO: 7). […] FIG. 1B summarizes the results of the three experiments described hereinabove.

Arabidopsis plants = conditions: yes/no

B1: SEQ ID NO: 6: PPO from Rhizopus sp. Protein. (protein, listed as Rhizopus sp.)
chain: MSSVAILGGGISGLSAAYYLARMAPPTTKITLIEGKKRLGGWIESRRVTPGHYDNIHQLPKNNSKENTILFEAGPRTLRPEGSNGAILLEMIRHLELNNENLMSVSKSHPSARHRYIYYKDKINTLPSDLQSFLLNKPPVLKSVPLAALLEPLKPSRFDKDGIAKDGIQDESIYSFMTRRFNEHTAIHLMGAVIHGIYAGDIKSLSLQSTLRSLYEAERIYGSAVLGMMKGASQVTTSVRERGMAARSRKEDPEWFGRMEKMSVIGFKSGMDTLPHQITSWLEQCPNVEVITDDPAEHIEIAHENKIKTQKGKTVHADHIISTLPSPVLERLVQHQPVLPHLSYNPSADVAVVNLAYSPDEMKLQYDGFGFLTPHRDTPYGNPLPGTLGVVFDSNALPIESERAVKLTAMIGGSDWKDAFGNVPIDELEPKVALDYTRKAVGTFLDIHAEPRYSMVNLQKQCIPQYLVGHQDRMLSLHHAIKKNYGHALSVSGASYLGVSVPDCIKNSRMLVEELLVSGALGSRQKVVTGLGKLEEQPTVDEMRDNARLSRGNTSVIMKS
[1]
  level of resistance against Aurora (in words): very high levels of resistance
  level of resistance to Strike, more tolerant to treatment as compared to control plants: about 10^5

B2: SEQ ID NO: 2: PPO from Aspergillus sp. Protein. (protein, listed as Aspergillus sp.)
chain: MRLPCASSRAFRQVRAPLALLHRGQRHAVHTKQFDAAVIGGGITGLTAAYQLSRDPSCSKVTLYEKSSHLGGWLSSEQIPVPGGHVVFEYGPRTLRTSSPSCLPMMDLIMNLDLLDDVLICDKKSPAAQNRYIYYPDHLVRLPFPPTEGLLKTAWTLLMEPLFETFLYSAIFEKPKRAENTHILSRDESVADFVSRRFSPKISENLASAVMAGIFAGDVNRLSAEMAIGYVRELEKRYGSIVDGMMTQRASEMRAMPMDELLALESVAVPSHSDDRYWKSLRAVVTDASVLTLKNGLGQLTDAMAAQLRSSRNVEVVTGTEVTSLSQNPKTQDLTIGFGKNESRTHNRVIATHAPSSLARQIQNTKVGVVPSDTIRDLGQNNYAVTVMVVNLYYEDPDLVPVEGFGYLLPSSVPFEQNPERALGVIFGSQSSEGQDTAPGTKLTVIMGGHLWDGWSESDYPDPDKAIEMAQALLHRHLGIKTAPSVARARLLRDAIPQYTVGHLSRMKELSHSVRSDFHKRLTLAGAWYGTVGIGVVDCIRQGYLASSYGVGSKKLGPGNSRRPWTKHDFHNWELEGGIATSPVRFDNVHVTERQHY
Arabidopsis plants; Table 1
  High concentration herbicide tolerance: yes
Arabidopsis plants; Table 2, FIG. 6C legend: Star 1.25 kg/hectare
  Herbicide tolerance: yes
[1]
  level of resistance against Aurora (in words): very high levels of resistance
  level of resistance to Strike, more tolerant to treatment as compared to control plants: about 10^5

B3: SEQ ID NO: 10: PPO from Fusarium sp. fused to cTP. Chimeric Protein; cloned from SEQ ID NO: 3 (protein)
chain: MELSLLRPTTQSLLPSFSKPNLRLNVYKPLRLRCSVAGGMSRRRAESTAVALLSSPAKSHLQPPLRRLDGIRSLSTSSALARRRPIVACNYTQSFNNGRTFVSQAKDANIAVLGGGLTGLTAAYYLAKKLPSTAKITLYESSDRLGGWIKTDRVPVDIEGKSGTLSFERGARSLSSLVGNTFRFDDLVLYDLALDLGLAINSPSQQPRYIYYPDHLVPTPPNISIFDMLREPLYLEIIGASLGLGINSLRKRTLPSKDYSVSEWLYAVSNSRKGIGNLASAMMHGIYGGDIHKLSARCVLDRLYWGWYLPNPGLSVRPMPVAEQALLETLGQDKQIQKMALEPRSALVDFGDKGMESLPQALSAALREQPNITIKTGEAVQDVVYNKANQQVHITSSNAKDNSKHNSKVYDKVISTLSAQDIALLAGNKLPSLSTAHSVSVMTVNIWFPQENLKPPGFGYLIPNSVAPELNPEHALGVFFDSDVQTRSKDEPAGTKLFVLMGGHYYDRPDVTPPTEEEAIIQARNLLERHLGIPRDAPAYATANFARECIPQHYVGHQDRLKAAHTELTRNFGGRLAVAGGSFTRIGAVASLRAGYDAATAAKKGLEATGLEYLNDIQQFSVVATSHIPVRHFK
[1]
  level of resistance against Aurora (in words): not against Aurora
  level of resistance against Strike (in words): high levels of resistance
  level of resistance to Strike, more tolerant to treatment as compared to control plants: about 10^5

B4: SEQ ID NO: 12: PPO from Fusarium sp. fused to cTP. Chimeric Protein; cloned from SEQ ID NO: 5 (protein)
chain: MELSLLRPTTQSLLPSFSKPNLRLNVYKPLRLRCSVAGGMSRRRAESTAVALLSSPAKSHLQPPLRRLDGIRSLSTSSALARRRPIVACNYTQSFNNGRTFVSQAKDANIAVLGGGLTGLTAAYYLAKKLPSTAKITLYESSDRLGGWIKTDRVPVDIEGKSGTLSFERGARSLSSLVGNTFRFDDLVLYDLALDLGLAINSPSQQPRYIYYPDHLVPTPPNISIFDMLREPLYLEIIGASLGLGINSVRKRTLPSKDYSVSEWLYAVSNSRKGIGNLASAMMHGIYGGDIHKLSARCVLDRLYWGWYLPNPGLSVRPMPVAEQALLETLGQDKQIQKMALEPRSALVDFGDKGMESLPQALSAALREQPNITIKTGEAVQDVVYNKANQQVHITSSNAKDNSKHNSKVYDKVISTLSAQDIALLAGNKLPSLSTAHSVSVMTVNIWFPQENLKPPGFGYLIPNSVAPELNPEHALGVFFDSDVQTRSKDEPAGTKLFVLMGGHYYDRPDVTPPTEEEAIIQARNLLERHLGIPRDAPAYATANFARECIPQHYVGHQDRLKAAHTELTRNFGGRLAVAGGSFTRIGAVASLRAGYDAATAAKKGLEATGLEYLNDIQQFSVVATSQIPVRHFK
[1]
  level of resistance against Aurora (in words): not against Aurora
  level of resistance against Strike (in words): high levels of resistance
  level of resistance to Strike, more tolerant to treatment as compared to control plants: about 10^5

B5: SEQ ID NO: 9: PPO from Aspergillus sp. fused to cTP. Chimeric Protein; cloned from SEQ ID NO: 2 (protein)
chain: MELSLLRPTTQSLLPSFSKPNLRLNVYKPLRLRCSVAGGMRLPCASSRAFRQVRAPLALLHRGQRHAVHTKQFDAAVIGGGITGLTAAYQLSRDPSCSKVTLYEKSSHLGGWLSSEQIPVPGGHVVFEYGPRTLRTSSPSCLPMMDLIMNLDLLDDVLICDKKSPAAQNRYIYYPDHLVRLPFPPTEGLLKTAWTLLMEPLFETFLYSAIFEKPKRAENTHILSRDESVADFVSRRFSPKISENLASAVMAGIFAGDVNRLSAEMAIGYVRELEKRYGSIVDGMMTQRASEMRAMPMDELLALESVAVPSHSDDRYWKSLRAVVTDASVLTLKNGLGQLTDAMAAQLRSSRNVEVVTGTEVTSLSQNPKTQDLTIGFGKNESRTHNRVIATHAPSSLARQIQNTKVGVVPSDTIRDLGQNNYAVTVMVVNLYYEDPDLVPVEGFGYLLPSSVPFEQNPERALGVIFGSQSSEGQDTAPGTKLTVIMGGHLWDGWSESDYPDPDKAIEMAQALLHRHLGIKTAPSVARARLLRDAIPQYTVGHLSRMKELSHSVRSDFHKRLTLAGAWYGTVGIGVVDCIRQGYLASSYGVGSKKLGPGNSRRPWTKHDFHNWELEGGIATSPVRFDNVHVTERQHY
[1]
  level of resistance against Aurora (in words): very high levels of resistance
  level of resistance to Strike, more tolerant to treatment as compared to control plants: about 10^5
